{"source": "paper PMC3946611", "about": "“hCLE/C14orf166 Associates with DDX1-HSPC117-FAM98B in a Novel Transcription-Dependent Shuttling RNA-Transporting Complex” (PLoS ONE, 2014)", "proteins": {"B1": {"name": "hCLE-TAP tagged protein, purified as hCLE-CBD (natural protein, human, UniProt Q9Y224 1-244, looked up)", "chain": "MFRRKLTALDYHNPAGFNCKDETEFRNFIVWLEDQKIRHYKIEDRGNLRNIHSSDWPKFFEKYLRDVNCPFKIQDRQEAIDWLLGLAVRLEYGDNAEKYKDLVPDNSKTADNATKNAEPLINLDVNNPDFKAGVMALANLLQIQRHDDYLVMLKAIRILVQERLTQDAVAKANQTKEGLPVALDKHILGFDTGDAVLNEAAQILRLLHIEELRELQTKINEAIVAVQAIIADPKTDHRLGKVGR", "notes": "hCLE/C14orf166, human; In the cells the protein carries the whole TAP tag (hCLE-TAP); after the TEV step of the purification it is hCLE-CBD; also called hCLE/C14orf166; protein C14orf166 (CLE); source: HEK293T, transfected with pChCLE-TAP; TAP purified (IgG-Sepharose, Calmodulin-Agarose) from total, nuclear or cytosolic extracts"}}, "molecular_target": "the molecule itself", "assay": "native gel or EMSA; purified hCLE-CBD, dialyzed, non-denaturing gel, Western blot against hCLE"}
{"protein": "B1", "values": [{"measurement": "stoichiometry N", "result": 2}]}
